Our source for the Kd values is publication PMC9666628 (Nature Communications, 2022).

Holding throughout (assay): fluorescence polarisation; 0.5 nM FITC-labeled peptide, chromodomain serially diluted (wild types 200-0.2 µM; Cbx7.V1 and Cbx.VDs 50 µM-50 nM); 25 °C, 30 min; 25 mM HEPES pH 7.5, 150 mM NaCl, 1 mM DTT, 0.01% TritonX-100; one-site total binding model; values of single replicates
What all share (details): both partners purified
(In general: Polarisation of emitted light reports the rotation of a fluorescent probe.)

One assay concerns the target T1, Cbx7 chromodomain Q9D (human, UniProt O95931 7-66, Q9D).
T1 construct: chromodomain of human Cbx7; residues numbered on full-length Cbx7; also called Cbx7 Q9D; source: E. coli BL21(DE3), purified (Ni-NTA), tags removed with TEV protease
T1 sequence: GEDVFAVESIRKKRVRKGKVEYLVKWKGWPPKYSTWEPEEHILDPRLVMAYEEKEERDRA

Assay [1] has as its target T2, wild-type Cbx7 chromodomain (human, UniProt O95931 7-66).
T2 construct: chromodomain of human Cbx7; also called Cbx7.wt; source: E. coli BL21(DE3), purified (Ni-NTA), tags removed with TEV protease
T2 sequence: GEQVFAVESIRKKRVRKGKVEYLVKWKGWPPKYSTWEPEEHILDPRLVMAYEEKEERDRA

The target in assay [2] is T3, Cbx7.V1 chromodomain variant (tags removed, used for FP) (human, UniProt O95931 7-66, E8D (printed as the back-mutation D8E) | Q9D | V10I (printed as the …)).
T3 construct: chromodomain of human Cbx7 with the six substitutions of the phage-selected variant V1; residues numbered on full-length Cbx7; source: E. coli BL21(DE3), purified (Ni-NTA), tags removed with TEV protease
T3 sequence: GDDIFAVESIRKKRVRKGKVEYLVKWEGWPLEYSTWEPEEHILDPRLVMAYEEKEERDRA

Another assay concerns the target T4, Cbx7 chromodomain K33E (human, UniProt O95931 7-66, K33E).
T4 construct: chromodomain of human Cbx7; residues numbered on full-length Cbx7; also called Cbx7 K33E; source: E. coli BL21(DE3), purified (Ni-NTA), tags removed with TEV protease
T4 sequence: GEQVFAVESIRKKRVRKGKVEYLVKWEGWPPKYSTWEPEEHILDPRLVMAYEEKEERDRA

Assay [3] addresses T5, Cbx7 chromodomain with the double substitution Q9D/K33E (human, UniProt O95931 7-66, Q9D | K33E).
T5 construct: chromodomain of human Cbx7; residues numbered on full-length Cbx7; also called Cbx7.VD; source: E. coli BL21(DE3), purified (Ni-NTA), tags removed with TEV protease
T5 sequence: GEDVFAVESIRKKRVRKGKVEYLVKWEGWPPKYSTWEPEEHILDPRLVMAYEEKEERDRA

In assay [4] the target is T2, wild-type Cbx7 chromodomain. This is another data set of the same source.
Assay [5] concerns the target T6, wild-type Cbx2 chromodomain (human, UniProt Q14781 9-62).
T6 construct: chromodomain of human Cbx2; also called Cbx2.wt; source: E. coli BL21(DE3), purified (Ni-NTA), tags removed with TEV protease
T6 sequence: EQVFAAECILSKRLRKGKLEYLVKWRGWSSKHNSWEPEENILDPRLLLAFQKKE

For assay [6], the target named is T5, Cbx7 chromodomain with the double …. This is another data set of the same source.
In assay [7] the target is T7, wild-type Cbx1 chromodomain (human, UniProt P83916 20-73).
T7 construct: chromodomain of human Cbx1; also called Cbx1.wt; source: E. coli BL21(DE3), purified (Ni-NTA), tags removed with TEV protease

Assay [8] deals with T8, wild-type Cbx5 chromodomain (human, UniProt P45973 18-75).
T8 construct: chromodomain of human Cbx5; also called Cbx5.wt; source: E. coli BL21(DE3), purified (Ni-NTA), tags removed with TEV protease

Several values for one entry are separate records, joined by “and”; a condition that tells them apart may be missing. Equal values may be shown once.

T7 sequence (P83916 20-73, looked up): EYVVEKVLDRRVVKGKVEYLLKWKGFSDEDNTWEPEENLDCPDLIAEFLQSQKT
T8 sequence (P45973 18-75, looked up): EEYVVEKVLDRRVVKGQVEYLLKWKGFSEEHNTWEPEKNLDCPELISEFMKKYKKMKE

For the molecule KQLATKAARKSAPATGGVK (trimethyl-lysine at K27; fluorescein isothiocyanate (FITC) at the N-terminus) [H3K27me3 peptide, FITC-labeled], the equilibrium dissociation constant (Kd) (in general, the free concentration of one partner at which half of the binding sites on the other are occupied at equilibrium, for simple one-to-one binding) was 115 µM and 101 µM and 84 µM with Cbx7 chromodomain Q9D; 115 µM and 79 µM and 143 µM in assay [1]; 4.5 µM and 3.9 µM and 3.4 µM in assay [2]; 17.5 µM and 21 µM and 19 µM with Cbx7 chromodomain K33E; 5.1 µM and 4.7 µM and 5.2 µM in assay [3]; 138 µM and 84 µM and 109 µM in assay [4]. The Kd in assay [5] was 117 µM and 101 µM and 84 µM; in assay [6], 4.8 µM and 5.2 µM.
Take ARTKQTARKSTGGKAPR (trimethyl-lysine at K9; fluorescein isothiocyanate (FITC) at the N-terminus) [H3K9me3 peptide, FITC-labeled]: the Kd is 11 µM and 9.7 µM and 9.4 µM in the assay with Cbx7 chromodomain Q9D; 41 µM and 27 µM and 23 µM in assay [1]; 7.5 µM and 5.7 µM and 7.8 µM in [2]; 24 µM and 18 µM and 19 µM in the assay with Cbx7 chromodomain K33E; 8.4 µM and 7.4 µM and 8.2 µM in assay [3]; 0.453 µM and 0.543 µM and 0.529 µM in assay [7]. Further, the Kd in assay [8] is 5.6 µM and 5 µM and 4.8 µM; in [4] it was 33.5 µM and 37 µM and 23 µM; in [6] it was 8.6 µM and 7.5 µM.
